Results published in patent US20110311553A1 (Boehringer Ingelheim, published 2011).
Substitutions are numbered along the chain they refer to.

B1: Ab4994 IgG4_Pro (antibody, V domains shown)
VH: QVQLVESGGGLVQPGGSLRLSCAASGFTFSSYAMNWVRQAPGKGLEWVSAISYSGHLTGYADSVKGRFTISRDNSKNTLYLQMNSLRAEDTAVYYCARIQNDPMDVWGQGTLVTVSS
VL: DIELTQPPSVSVAPGQTARISCSGDNLGKKYVQWYQQKPGQAPVLVIYDDSNRPSGIPERFSGSNSGNTATLTISGTQAEDEADYYCSSWDVGSDGWVFGGGTKLTVLG
B2: Ab4997 IgG4_Pro (antibody, V domains shown)
VH: B1 VH with S54N, H56K, T58K
VL: B1 VL
B3: Ab5003 IgG4_Pro (antibody, V domains shown)
VH: B1 VH with S54K
VL: B1 VL
B4: Ab5007 IgG4_Pro (antibody, V domains shown)
VH: B1 VH with Y53F
VL: B1 VL
B5: Ab4996 IgG4_Pro (antibody, V domains shown)
VH: QVQLVESGGGLVQPGGSLRLSCAASGFTFSNHAMHWVRQAPGKGLEWVSAISHPGKFTYYADSVKGRFTISRDNSKNTLYLQMNSLRAEDTAVYYCARHGDGMDYFDFWGQGTLVTVSS
VL: DIELTQPPSVSVAPGQTARISCSGDNIGTKYVYWYQQKPGQAPVLVIYDDNNRPSGIPERFSGSNSGNTATLTISGTQAEDEADYYCQSYDSQTMVFGGGTKLTVLG
B6: Ab4999 IgG4_Pro (antibody, V domains shown)
VH: B1 VH with A50T, G55S, H56S, L57A, G59S
VL: DIELTQPPSVSVAPGQTARISCSGDNLGKKYVQWYQQKPGQAPVLVIYDDSNRPSGIPERFSGSNSGNTATLTISGTQAEDEADYYCQTWDYSSIRDETNVFGGGTKLTVLG
B7: Ab5149 IgG4_Pro (light chain of Ab4999 combined with heavy chain of Ab4997) (antibody, V domains shown)
VH: B1 VH with S54N, H56K, T58K
VL: B6 VL
B8: Ab5150 IgG4_Pro (light chain of Ab4999 combined with heavy chain of Ab5003) (antibody, V domains shown)
VH: B1 VH with S54K
VL: B6 VL
B9: Ab5151 IgG4_Pro (light chain of Ab4999 combined with heavy chain of Ab5007) (antibody, V domains shown)
VH: B1 VH with Y53F
VL: B6 VL
B10: Ab5005 IgG4_Pro (antibody, V domains shown)
VH: B1 VH with A50T, G55S, H56S, L57A, G59S
VL: DIELTQPPSVSVAPGQTARISCSGDNLGKKYVQWYQQKPGQAPVLVIYDDSNRPSGIPERFSGSNSGNTATLTISGTQAEDEADYYCQSWALVGSSESNVFGGGTKLTVLG

Molecular target: Labeled peptide representing the N-terminus of PAR-2 (FRET peptide)
Assay: cell-based or functional assay

Binder	FRET Peptide Cleavage IC50 [nM]
B1	< 30
B2	< 30
B3	< 30
B4	< 30
B5	< 30
B6	< 30
B7	< 30
B8	< 30
B9	< 30
B10	< 30
